# Measured values taken from the supplement of paper PMC10567573.
# B1: C10orf62 (parent)
# chain: RALEEVEMKLQKNFLTQRENTIAG
# B2: NETO1 (parent)
# chain: GFSPIIGRFCGQQNPPVIKSSGRF
# Variants of: B1
# Assay: protein stability index of a GFP-peptide fusion (GPS, HEK-293T) (PSI 1-6); higher = more stable
# Details: c terminus: a fixed tail appended
# 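Further: lentivirally expressed fusions sorted by FACS into six bins by GFP to DsRed ratio, PSI derived from sequencing read proportions per bin multiplied by bin number.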
row,Variant,protein stability index
1,RSLEEVEMKLQKNFLTQRENTIAG [A2S],3.9
2,RNLEEVEMKLQKNFLTQRENTIAG [A2N],3.89
3,RDLEEVEMKLQKNFLTQRENTIAG [A2D],4.1
4,RQLEEVEMKLQKNFLTQRENTIAG [A2Q],4.32
5,RPLEEVEMKLQKNFLTQRENTIAG [A2P],4.4
6,RYLEEVEMKLQKNFLTQRENTIAG [A2Y],2.98
7,RELEEVEMKLQKNFLTQRENTIAG [A2E],4.41

# Variants of: B2
# Assay: as above
# Details: c terminus: a fixed tail appended
row,Variant,protein stability index
1,GFRPIIGRFCGQQNPPVIKSSGRF [S3R],2.04
2,GFIPIIGRFCGQQNPPVIKSSGRF [S3I],1.71
3,GFKPIIGRFCGQQNPPVIKSSGRF [S3K],2.47
4,GFSPIIGRFCGQQNPPVIHSSGRF [K19H],1.64
5,GFSPIIGRFCGQQNPPVIMSSGRF [K19M],2.58
6,GFSPIIGRFCGQQNPPVIISSGRF [K19I],2.07
7,GFSPIIGRFCAQQNPPVIKSSGRF [G11A],2.01
8,GFSPIIGRFCCQQNPPVIKSSGRF [G11C],1.6
9,GFSPIIGRFCPQQNPPVIKSSGRF [G11P],2.58
10,GFSPIIGRFCNQQNPPVIKSSGRF [G11N],2.17
11,GKSPIIGRFCGQQNPPVIKSSGRF [F2K],2.28
12,GNSPIIGRFCGQQNPPVIKSSGRF [F2N],2.78
13,GFSPWIGRFCGQQNPPVIKSSGRF [I5W],1.42
14,GFSPVIGRFCGQQNPPVIKSSGRF [I5V],1.87
15,GFSPPIGRFCGQQNPPVIKSSGRF [I5P],2.79
16,GFSPYIGRFCGQQNPPVIKSSGRF [I5Y],2.36
17,GFSPIIGRFCGQLNPPVIKSSGRF [Q13L],2.3
18,GFSPIIGRFCGQMNPPVIKSSGRF [Q13M],2.3
19,GFSPIIGRFCGQGNPPVIKSSGRF [Q13G],1.89
20,GFSPIIGRFCGQVNPPVIKSSGRF [Q13V],2.36
21,GFSPIIGRFCGQKNPPVIKSSGRF [Q13K],1.88
22,GFSPIIGRFCGQCNPPVIKSSGRF [Q13C],1.42

row,Variant,protein stability index
1,GFSPIIGRCCGQQNPPVIKSSGRF [F9C],2.06
2,GFSPIIGRWCGQQNPPVIKSSGRF [F9W],2.27
3,GFSPIIGRDCGQQNPPVIKSSGRF [F9D],3.31
4,GFSPIIGRECGQQNPPVIKSSGRF [F9E],3.73
5,GFSPIRGRFCGQQNPPVIKSSGRF [I6R],3.09
6,GFSPIDGRFCGQQNPPVIKSSGRF [I6D],3.54
7,GFSPIMGRFCGQQNPPVIKSSGRF [I6M],2.05
8,GFSPIIGRFCGQQNPPVIKKSGRF [S20K],2.65
9,GFSPIIGRFCGQQNPPVIKFSGRF [S20F],2.26
10,GFSPIIGRFCGQQNPPVIKTSGRF [S20T],1.88
11,GFSPIIGRFCGQQAPPVIKSSGRF [N14A],2.25
12,GFSPIIGRFCGQQTPPVIKSSGRF [N14T],1.67
13,GFSPIIGRFCGQQHPPVIKSSGRF [N14H],2.18
14,GFSPIITRFCGQQNPPVIKSSGRF [G7T],2.47
15,GFSPIIHRFCGQQNPPVIKSSGRF [G7H],1.74
16,GFSPIIPRFCGQQNPPVIKSSGRF [G7P],1.65
17,GFSPIILRFCGQQNPPVIKSSGRF [G7L],1.85
18,DFSPIIGRFCGQQNPPVIKSSGRF [G1D],1.6
19,LFSPIIGRFCGQQNPPVIKSSGRF [G1L],2.27
20,CFSPIIGRFCGQQNPPVIKSSGRF [G1C],1.6
21,GFSPIIGRFCGWQNPPVIKSSGRF [Q12W],1.72
22,GFSPIIGRFCGQQNPGVIKSSGRF [P16G],1.85

row,Variant,protein stability index
1,GFSPIIGRFCGQQNPEVIKSSGRF [P16E],2.58
2,GFSPIIGRFCGQQNPSVIKSSGRF [P16S],2.05
3,GFSPIIGRFCGQQNPWVIKSSGRF [P16W],1.32
4,GFSPIIGRFCGQQNPRVIKSSGRF [P16R],2.32
5,GFSPIIGRFCGQQNPTVIKSSGRF [P16T],2.23
6,GFSHIIGRFCGQQNPPVIKSSGRF [P4H],2.05
7,GFSDIIGRFCGQQNPPVIKSSGRF [P4D],1.57
8,GFSPIIGRFCGQQNPPVHKSSGRF [I18H],1.76
9,GFSPIIGRFCGQQNPPVAKSSGRF [I18A],2.7
10,GFSPIIGRFCGQQNPPVWKSSGRF [I18W],2.1
11,GFSPIIGRFCGQQNPPVEKSSGRF [I18E],2.61
12,GFSPIIGLFCGQQNPPVIKSSGRF [R8L],1.83
13,GFSPIIGKFCGQQNPPVIKSSGRF [R8K],2.19
14,GFSPIIGWFCGQQNPPVIKSSGRF [R8W],1.93
15,GFSPIIGEFCGQQNPPVIKSSGRF [R8E],3.19
16,GFSPIIGSFCGQQNPPVIKSSGRF [R8S],2.05
17,GFSPIIGRFIGQQNPPVIKSSGRF [C10I],2.86
18,GFSPIIGRFYGQQNPPVIKSSGRF [C10Y],2.42
19,GFSPIIGRFMGQQNPPVIKSSGRF [C10M],2.27
20,GFSPIIGRFDGQQNPPVIKSSGRF [C10D],2.71
21,GFSPIIGRFCGQQNPPVIKSSGGF [R23G],1.67
22,GFSPIIGRFCGQQNPPVIKSSGQF [R23Q],1.56

row,Variant,protein stability index
1,GFSPIIGRFCGQQNPPVIKSSGDF [R23D],2.3
2,GFSPIIGRFCGQQNPPVIKSSGHF [R23H],1.76
3,GFSPIIGRFCGQQNPPVIKSSGEF [R23E],2.04
4,GFSPIIGRFCGQQNPPIIKSSGRF [V17I],2.51
5,GFSPIIGRFCGQQNPPHIKSSGRF [V17H],2.08
6,GFSPIIGRFCGQQNPPYIKSSGRF [V17Y],2.12
7,GFSPIIGRFCGQQNPPTIKSSGRF [V17T],2.05
8,GFSPIIGRFCGQQNDPVIKSSGRF [P15D],2.4
9,GFSPIIGRFCGQQNVPVIKSSGRF [P15V],2.14
10,GFSPIIGRFCGQQNPPVIKSMGRF [S21M],2.18
11,GFSPIIGRFCGQQNPPVIKSSSRF [G22S],2
12,GFSPIIGRFCGQQNPPVIKSSHRF [G22H],1.59
13,GFSPIIGRFCGQQNPPVIKSSMRF [G22M],1.65
14,GFSPIIGRFCGQQNPPVIKSSQRF [G22Q],2.35
15,GFSPIIGRFCGQQNPPVIKSSARF [G22A],1.87
16,GFSPIIGRFCGQQNPPVIKSSIRF [G22I],1.73
17,GFSPIIGRFCGQQNPPVIKSSFRF [G22F],1.82
18,GFSPIIGRFCGQQNPPVIKSSGRE [F24E],2.76
19,GFSPIIGRFCGQQNPPVIKSSGRP [F24P],2.51
20,GFSPIIGRFCGQQNPPVIKSSGRL [F24L],3.69
21,GFSPIIGRFCGQQNPPVIKSSGRS [F24S],3.88
